For data set [1], the system named is Dpb11;Mec1;Ddc2;RPA (Saccharomyces cerevisiae;Saccharomyces cerevisiae;Saccharomyces cerevisiae;Saccharomyces cerevisiae). As to the kind of experiment: single-molecule fluorescence (C-Trap kymographs). As to conditions: 5' dual-biotin at both ends; Imaging: 25 mM Tris-HCl pH 7.5, 100 mM NaCl, 10 mM Mg acetate, 2 mM TCEP, 0.1 mM EDTA, 0.04 mg/mL BSA, 1% glycerol, oxygen scavengers; room temperature, no …; scale: % of Mec1-Ddc2 binding events at gap junctions.

Data set [2] concerns Dpb11;RPA (Saccharomyces cerevisiae;Saccharomyces cerevisiae). As to the kind of experiment: single-molecule fluorescence (C-Trap kymographs). As to conditions: 5' dual-biotin at both ends; Imaging: 25 mM Tris-HCl pH 7.5, 100 mM NaCl, 10 mM Mg acetate, 2 mM TCEP, 0.1 mM EDTA, 0.04 mg/mL BSA, 1% glycerol, oxygen scavengers; room temperature, no ….
The target in data set [3] is T1, Sc Dpb11 recombinant protein (unlabeled) (S. cerevisiae), P47027.
T1 chain: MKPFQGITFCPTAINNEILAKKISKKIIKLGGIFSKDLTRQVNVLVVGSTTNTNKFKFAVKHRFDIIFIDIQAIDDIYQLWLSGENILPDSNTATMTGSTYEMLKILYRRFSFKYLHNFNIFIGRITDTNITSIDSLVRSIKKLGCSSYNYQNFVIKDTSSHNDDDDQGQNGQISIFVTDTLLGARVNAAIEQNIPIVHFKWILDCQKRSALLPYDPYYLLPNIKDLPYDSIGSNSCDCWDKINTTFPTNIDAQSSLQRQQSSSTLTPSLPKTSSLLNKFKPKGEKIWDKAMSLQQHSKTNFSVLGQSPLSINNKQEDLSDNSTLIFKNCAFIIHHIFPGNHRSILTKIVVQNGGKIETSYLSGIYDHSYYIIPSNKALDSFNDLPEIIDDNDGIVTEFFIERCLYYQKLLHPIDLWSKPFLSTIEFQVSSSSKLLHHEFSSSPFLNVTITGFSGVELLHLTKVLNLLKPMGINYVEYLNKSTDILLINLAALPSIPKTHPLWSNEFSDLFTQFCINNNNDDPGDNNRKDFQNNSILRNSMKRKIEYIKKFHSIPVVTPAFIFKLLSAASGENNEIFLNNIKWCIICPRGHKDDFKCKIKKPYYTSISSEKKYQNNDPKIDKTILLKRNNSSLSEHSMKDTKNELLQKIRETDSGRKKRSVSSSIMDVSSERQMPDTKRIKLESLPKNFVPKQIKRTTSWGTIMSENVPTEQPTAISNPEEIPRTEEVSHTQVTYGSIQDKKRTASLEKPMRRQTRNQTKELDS
As to the kind of experiment: mass photometry; 50 nM Dpb11, label-free, MP Buffer (25 mM Tris-HCl pH 7.5, 250 mM NaCl, 10 mM Mg(CH3COO)2, 2 mM TCEP, 0.1 mM EDTA, 4% glycerol); monomer and dimer. Particulars: remark: other sources report otherwise.

For data set [4], the target named is T1, Sc Dpb11 recombinant protein …. As to the kind of experiment: mass photometry; 150 nM Dpb11, label-free, MP Buffer (25 mM Tris-HCl pH 7.5, 250 mM NaCl, 10 mM Mg(CH3COO)2, 2 mM TCEP, 0.1 mM EDTA, 4% glycerol); monomer and dimer. Particulars: remark: other sources report otherwise.
Data set [5] has as its target T2, Mec1-Ddc2^LD555 (Mec1(b)-Ddc2 labeled with LD555) (S. cerevisiae, UniProt P38111 1-2368; Q04377 1-747, fluorophore LD555 (NHS ester) at the N-terminal amine of Mec1-Ddc2; which chain is not told | fluorophore LD555 (NHS ester) at the N-terminal amine of Mec1-Ddc2; which chain is not told).
T2 construct: Mec1, S. cerevisiae; gene synthesized by Biomatik; Ddc2, S. cerevisiae; gene by PCR from genomic DNA of strain S288C; also called fluorescent Mec1-Ddc2; Sc Mec1(b)-Ddc2 recombinant protein; copies: 2 + 2
As to the kind of experiment: single-molecule fluorescence imaging, dual-color colocalization (C-Trap); 10 nM Mec1-Ddc2^LD555, 20 nM Dpb11^LD655, 180 nM unlabeled Dpb11 and 100 nM unlabeled RPA on 3 kb-gapped DNA; SM Buffer, room temperature, no flow. Particulars: both partners purified.

Data set [6] has as its target T3, Mec1-Ddc2^AF647 (Mec1(a)-Ddc2 labeled with Alexa Fluor 647) (S. cerevisiae, UniProt P38111 1-2368; Q04377 1-747, fluorophore AF647 (NHS ester) at the N-terminal amine of Mec1-Ddc2; which chain is not told | fluorophore AF647 (NHS ester) at the N-terminal amine of Mec1-Ddc2; which chain is not told).
T3 construct: Mec1, S. cerevisiae; gene synthesized by Biomatik; Ddc2, S. cerevisiae; gene by PCR from genomic DNA of strain S288C; Only the Mec1(b) plasmid was deposited (Addgene 240737); Mec1(a) differs in the C-terminal tag region; also called Sc Mec1(a)-Ddc2 recombinant protein; copies: 2 + 2
Nature of the data set: single-molecule fluorescence imaging (C-Trap, optical tweezers with confocal microscopy); 30 nM fluorescent Mec1-Ddc2, 200 nM unlabeled Dpb11 and 100 nM unlabeled RPA on 3 kb-gapped DNA; distribution of initial binding positions of Mec1-Ddc2; SM Buffer, room temperature, no flow. Particulars: both partners purified.

For data set [7], the target named is T2, Mec1-Ddc2^LD555 (Mec1(b)-Ddc2 labeled …). The description is as above. As to conditions: both partners purified.

One may read the stoichiometry N as the number of molecules, sites or subunits per partner or assembly.

With 3 kb-gapped 19 kb DNA, the binding signal in data set [1] was 50. The molecule further showed a binding signal (% of binding events at gap junctions) in data set [2] of 53.

B1: Sc Dpb11 recombinant protein (unlabeled), P47027 1-764 (natural protein)
chain: T1 chain
With B1, in data set [3], the percent of particles as dimer came to 64%, the percent of particles as monomer is 35% and the stoichiometry N worked out at 2. Besides, in data set [4], the percent of particles as dimer came out at 98% and the stoichiometry N amounted to 2.

B2: Dpb11^LD655 (natural protein, S. cerevisiae, UniProt P47027 1-764, looked up)
chain: T1 chain
modifications: fluorophore LD655 (NHS ester) at the N-terminal amine
notes: Dpb11, S. cerevisiae strain S288C gene; Same protein as m1, labeled; In the dual-color experiment 20 nM of it stood with 180 nM unlabeled Dpb11; also called fluorescent Dpb11; Dpb11 labeled with LD655; source: S. cerevisiae strain OY001, GAL1/10 overexpression, purified (FLAG-Ab beads), then labeled with LD655 NHS
On to B2, for which the binding result in data set [5] was “binds”.

B3: Sc Dpb11 recombinant protein (unlabeled) (natural protein, S. cerevisiae, UniProt P47027 1-764, looked up)
chain: T1 chain
notes: Dpb11, S. cerevisiae strain S288C gene; Eluted from the beads with 3xFLAG peptide; no removal of the tag is described; By mass photometry a mixture of monomer and dimer; also called unlabeled Dpb11
Turning to B3, the binding result in data set [6] and in data set [7] was “binds” in each case.
